The values that follow come from patent publication US20220153832A1 (PIONYR IMMUNOTHERAPEUTICS, published 2022).

Assay [1] concerns the target T1, Human Macrophage Receptor with Collagenous Structure (MARCO), full length, on cells (human, UniProt Q9UEW3 1-520).
T1 construct: the cell type is named under assay; also called huMARCO; HuMARCO
T1 sequence: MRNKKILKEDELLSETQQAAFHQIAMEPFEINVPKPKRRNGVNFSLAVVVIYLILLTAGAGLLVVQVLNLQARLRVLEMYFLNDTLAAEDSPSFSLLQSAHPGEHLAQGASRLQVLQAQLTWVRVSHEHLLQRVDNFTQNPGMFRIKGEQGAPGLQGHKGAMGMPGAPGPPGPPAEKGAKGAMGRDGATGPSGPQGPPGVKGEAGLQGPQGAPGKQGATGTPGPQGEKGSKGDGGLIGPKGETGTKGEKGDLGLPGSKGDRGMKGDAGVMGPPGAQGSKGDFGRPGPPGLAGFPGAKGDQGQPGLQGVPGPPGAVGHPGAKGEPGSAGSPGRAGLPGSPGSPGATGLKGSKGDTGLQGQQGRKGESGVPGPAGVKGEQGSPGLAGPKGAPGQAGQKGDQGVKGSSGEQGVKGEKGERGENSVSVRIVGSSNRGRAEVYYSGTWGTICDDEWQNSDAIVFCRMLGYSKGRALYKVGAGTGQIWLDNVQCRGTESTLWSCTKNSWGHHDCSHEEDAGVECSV
Nature of the assay: flow cytometry, cells overexpressing human MARCO.

Assay [2] has as its target T2, N-terminally polyhistidine tagged human MARCO ECD (147-520), recombinant (human, UniProt Q9UEW3 147-520).
T2 construct: also called PI-RG-3000; recombinant human MARCO; not shown: N-terminal polyhistidine tag
T2 sequence: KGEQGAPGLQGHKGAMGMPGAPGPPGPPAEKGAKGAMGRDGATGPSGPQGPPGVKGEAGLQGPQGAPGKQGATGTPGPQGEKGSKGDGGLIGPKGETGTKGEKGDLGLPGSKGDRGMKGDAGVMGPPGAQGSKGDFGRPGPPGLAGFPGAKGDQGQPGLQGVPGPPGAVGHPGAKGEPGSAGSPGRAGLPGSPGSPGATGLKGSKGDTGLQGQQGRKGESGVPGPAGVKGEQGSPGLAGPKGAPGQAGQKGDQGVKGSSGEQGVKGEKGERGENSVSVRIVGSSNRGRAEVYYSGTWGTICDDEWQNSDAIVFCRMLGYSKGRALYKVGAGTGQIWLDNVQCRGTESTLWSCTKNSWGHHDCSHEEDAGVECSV
Nature of the assay: Biacore; deamidation stress sample (40 C 2 week). On the technique in general: Surface plasmon resonance follows binding to a sensor surface in real time, without labels.

Assay [3] concerns the target T2, N-terminally polyhistidine tagged human …. Nature of the assay: ELISA readout A450-A620; the panel names no target, the legend says MARCO expressing cells; transiently made reference antibody.
Assay [4] shares this target. Nature of the assay: ProbeLife Gator. On the procedure:
The kinetics assay used either anti-mouse Fc or anti-human Fc probes to capture the anti-MARCO antibodies onto the probe, and then a five-step kinetic protocol was used to measure the affinity of the antibodies to the antigen, including the following steps: baseline, loading, baseline, association, and dissociation. The kinetics buffer (K buffer) provided by ProbeLife was used to establish the baseline for 60 seconds, and then the anti-mFc or anti-hFc probes were loaded with 200 nM of the antibodies for 120s until the capture reached saturation, measurement of the baseline in K buffer was performed for another 60s, followed by the association step using 200 nM antigen (human MARCO, mouse MARCO or cyno MARCO), and the dissociation step performed in K buffer for 5-10 minutes. The assay was done at 37° C. to maximize antibody:antigen dissociation.

Assay [5] addresses T3, Mouse MARCO, full length, on cells (mouse, UniProt Q60754 1-518).
T3 construct: whole, on cells; the cell type is named under assay; also called muMARCO; MuMARCO
T3 sequence (looked up): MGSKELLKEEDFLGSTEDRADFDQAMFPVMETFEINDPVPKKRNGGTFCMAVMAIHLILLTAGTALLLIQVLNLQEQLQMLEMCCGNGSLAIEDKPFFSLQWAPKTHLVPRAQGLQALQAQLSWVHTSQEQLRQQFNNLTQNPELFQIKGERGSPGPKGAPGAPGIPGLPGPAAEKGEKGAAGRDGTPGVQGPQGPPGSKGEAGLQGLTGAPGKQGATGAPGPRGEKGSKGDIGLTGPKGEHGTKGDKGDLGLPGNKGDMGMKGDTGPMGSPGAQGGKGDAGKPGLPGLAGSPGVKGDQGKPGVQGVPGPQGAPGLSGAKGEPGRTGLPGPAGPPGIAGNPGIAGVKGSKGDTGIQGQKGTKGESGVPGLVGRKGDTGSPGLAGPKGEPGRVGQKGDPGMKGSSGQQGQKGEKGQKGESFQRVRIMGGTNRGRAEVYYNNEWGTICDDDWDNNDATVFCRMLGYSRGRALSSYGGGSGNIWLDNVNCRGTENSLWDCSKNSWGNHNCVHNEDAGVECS
Nature of the assay: competition with AF488 E. coli binding to muMARCO 293T cells, flow cytometry. A general note: In flow cytometry, cells or beads pass a laser one at a time.

Assay [6] has as its target T3, Mouse MARCO, full length, on cells. In words: flow cytometry, 293T (MuMARCO).

B1: PI-3015-AB (antibody, human IgG1, kappa)
heavy: not shown
light: DIQMTQSPSSLSASVGDRVTITCRASEGISNDLAWYQQKPGKAPKLLIYAASRLQSGVPSRFSGSGSGTDYTLTISSMQPEDFATYYCQQSYKYPLTFGQGTKLEIKRTVAAPSVFIFPPSDEQLKSGTASVVCLLNNFYPREAKVQWKVDNALQSGNSQESVTEQDSKDSTYSLSSTLTLSKADYEKHKVYACEVTHQGLSSPVTKSFNRGEC
As usually defined, the EC50 is the concentration at which the effect is half-maximal. Read a low EC50 as a more potent agent. By Kd is commonly meant a measure of binding affinity in units of concentration. Usually EC50 (read off the curve) stands for the concentration needed to bring the measured effect to its halfway point. As to B1, the 50% effective concentration (EC50) in assay [1] is 0.86 nM. Besides, the Kd in assay [2] turned out to be 1.24 nM. In addition, in assay [3], the concentration giving a half-maximal response (EC50 (read off the curve)) was about 0.2 nM.

B2: PI-3010-AB (antibody, human IgG1, kappa)
heavy: not shown
light: DIQMTQSPASLSTSLGETVSIECLASEGISNDLAWYQQKSGKSPQLLIYAASRLQDGVPSRFSGSGSGTRYSLKISGMQPEDEADYFCQQSYKYPLTFGSGTKLEIKRTVAAPSVFIFPPSDEQLKSGTASVVCLLNNFYPREAKVQWKVDNALQSGNSQESVTEQDSKDSTYSLSSTLTLSKADYEKHKVYACEVTHQGLSSPVTKSFNRGEC
Broadly, the koff is the rate constant with which the complex falls apart. Turning to B2, the koff in assay [4] stood at 0.00234 s⁻¹. Also, the EC50 in assay [1] was found to be 0.68 nM.

B3: PI-HX-3061 (antibody, rat IgG2a)
heavy: EVQLVESGGGLVQPGSSLKLSCVASKFTFSNYGMNWIRQAPKKGLEWIALIYYNSNNKYYADSVKGRFTISRDNSKNTLYLEMNSLRSEDTAMYYCAKSLTGGSDYFDSWGQGVMVTVSSAETTAPSVYPLAPGTALKSNSMVTLGCLVKGYFPEPVTVTWNSGALSSGVHTFPAVLQSGLYTLTSSVTVPSSTWPSQTVTCNVAHPASSTKVDKKIVPRNCGGDCKPCICTGSEVSSVFIFPPKPKDVLTITLTPKVTCVVVDISQDDPEVHFSWFVDDVEVHTAQTRPPEEQFNSTFRSVSELPILHQDWLNGRTFRCKVTSAAFPSPIEKTISKPEGRTQVPHVYTMSPTKEEMTQNEVSITCMVKGFYPPDIYVEWQMNGQPQENYKNTPPTMDTDGSYFLYSKLNVKKEKWQQGNTFTCSVLHEGLHNHHTEKSLSHSP
light: DVQMTQSPSYLAASPGESVSISCKASKSIGTFLAWYQEKPEKTNKLLIYSGSTLQSGTPSRFSGSGSGTDFTLTIRNLEPEDFAVYYCQQHDEYPFTFGSGTKLEIKRADAAPTVSIFPPSTEQLATGGASVVCLMNNFYPRDISVKWKIDGTERRDGVLDSVTDQDSKDSTYSMSSTLSLTKADYESHNLYTCEVVHKTSSSPVVKSFNRNEC
notes: Parental rat hybridoma, rat IgG2a; cross reactive with human and mouse MARCO
For the molecule B3, the half-maximal effective concentration (EC50) in assay [5] is 0.85 nM; in assay [6], 1.52 nM.
